Measurements as given in paper PMC4198130.
Each block holds one substance with its values, some of them ahead of it.

Key:
[1] = target: GST fusion of the VGLUT1 C-terminus lacking both PP domains (rat); test: pull-down; GST fusions of the VGLUT1 C-terminus on glutathione sepharose beads, incubated with detergent-solubilized (2% TX-100) rat brain extract, RT 60 min; bound proteins by immunoblot, band intensity normalised to VG1 (Figs. 3C,D and 4B)
[2] = target: GST fusion of the VGLUT1 C-terminus lacking the first PP domain (rat); test: as above
[3] = target: GST fusion of the VGLUT1 C-terminus lacking the second PP domain (rat); test: as above
[4] = target: GST fusion of the VGLUT1 C-terminus, SS/AA (rat) (UniProt Q62634); test: pull-down; 400 µg GST fusions of the VGLUT1 C-terminus on glutathione sepharose beads, rat brain extract in 100 mM Tris-HCl pH 7.5, 150 mM NaCl, 1 mM EGTA, 1% TX-100, 4°C 2 h; immunoblot (Fig. 6)
[5] = target: GST fusion of the VGLUT1 C-terminus, SS/DD (rat) (UniProt Q62634); test: as above
[6] = target: GST fusion of the VGLUT1 C-terminus lacking both PP domains (rat); test: pull-down; GST fusions of the VGLUT1 C-terminus on glutathione sepharose beads, incubated with extracts of COS7 cells transfected with myc-Lyn (2% TX-100); detected with antibody to myc, band intensity normalised to VG1
[7] = target: GST fusion of the VGLUT1 C-terminus lacking the first PP domain (rat); test: as above
[8] = target: GST fusion of the VGLUT1 C-terminus lacking the second PP domain (rat); test: as above
[9] = target: GST fusion of the VGLUT1 C-terminus, ΔSH3/1,2,3 (rat); test: pull-down; GST fusions of the VGLUT1 C-terminus on glutathione sepharose beads, incubated with detergent-solubilized (2% TX-100) rat brain extract, RT 60 min; bound proteins by immunoblot, band intensity normalised to VG1 (Figs. 3C,D and 4B)
[10] = target: GST fusion of the VGLUT1 C-terminus, ΔWW/PAXA (rat); test: as above
[11] = target: GST fusion of the VGLUT1 C-terminus, ΔWW/PAXY (rat); test: as above
[12] = target: GST fusion of the SH3 domain of sorting nexin 9 (Panomics) (human) (UniProt Q9Y5X1); test: pull-down; GST fusions of SH3 or WW domains on glutathione sepharose beads, incubated with detergent-solubilized (2% TX-100) rat brain extract, RT 60 min; bound VGLUT1 by immunoblot, band intensity normalised to lysate
Sequence of GST fusion of the SH3 domain of sorting nexin 9 (Panomics) (human) (Q9Y5X1 1-62): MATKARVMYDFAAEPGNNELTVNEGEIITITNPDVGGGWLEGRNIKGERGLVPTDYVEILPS

Sequence of Nedd4 from rat brain extract (Q62940 whole entry): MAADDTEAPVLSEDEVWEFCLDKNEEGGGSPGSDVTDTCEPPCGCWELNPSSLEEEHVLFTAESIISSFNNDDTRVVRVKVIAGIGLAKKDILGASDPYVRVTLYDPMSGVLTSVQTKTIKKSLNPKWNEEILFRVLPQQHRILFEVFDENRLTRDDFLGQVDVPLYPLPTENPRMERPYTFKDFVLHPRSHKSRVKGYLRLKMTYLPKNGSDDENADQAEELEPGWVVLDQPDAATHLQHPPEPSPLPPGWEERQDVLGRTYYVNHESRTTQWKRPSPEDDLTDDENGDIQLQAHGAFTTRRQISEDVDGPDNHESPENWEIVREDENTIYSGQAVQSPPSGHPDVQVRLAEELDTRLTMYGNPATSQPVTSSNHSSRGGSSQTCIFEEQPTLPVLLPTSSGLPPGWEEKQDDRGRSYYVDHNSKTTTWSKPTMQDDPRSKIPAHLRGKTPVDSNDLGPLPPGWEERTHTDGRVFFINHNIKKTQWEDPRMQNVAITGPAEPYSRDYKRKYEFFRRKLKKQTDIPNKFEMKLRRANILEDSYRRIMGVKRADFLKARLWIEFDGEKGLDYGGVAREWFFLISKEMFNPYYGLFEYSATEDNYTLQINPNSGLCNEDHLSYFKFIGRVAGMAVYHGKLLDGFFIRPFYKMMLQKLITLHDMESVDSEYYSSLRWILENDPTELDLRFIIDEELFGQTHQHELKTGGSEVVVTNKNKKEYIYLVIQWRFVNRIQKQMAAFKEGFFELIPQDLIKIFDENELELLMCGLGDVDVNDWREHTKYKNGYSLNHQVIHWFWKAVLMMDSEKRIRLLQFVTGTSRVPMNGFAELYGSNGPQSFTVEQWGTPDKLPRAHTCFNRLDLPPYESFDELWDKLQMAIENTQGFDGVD
Sequence of myc-tagged Lyn (P25911 whole entry): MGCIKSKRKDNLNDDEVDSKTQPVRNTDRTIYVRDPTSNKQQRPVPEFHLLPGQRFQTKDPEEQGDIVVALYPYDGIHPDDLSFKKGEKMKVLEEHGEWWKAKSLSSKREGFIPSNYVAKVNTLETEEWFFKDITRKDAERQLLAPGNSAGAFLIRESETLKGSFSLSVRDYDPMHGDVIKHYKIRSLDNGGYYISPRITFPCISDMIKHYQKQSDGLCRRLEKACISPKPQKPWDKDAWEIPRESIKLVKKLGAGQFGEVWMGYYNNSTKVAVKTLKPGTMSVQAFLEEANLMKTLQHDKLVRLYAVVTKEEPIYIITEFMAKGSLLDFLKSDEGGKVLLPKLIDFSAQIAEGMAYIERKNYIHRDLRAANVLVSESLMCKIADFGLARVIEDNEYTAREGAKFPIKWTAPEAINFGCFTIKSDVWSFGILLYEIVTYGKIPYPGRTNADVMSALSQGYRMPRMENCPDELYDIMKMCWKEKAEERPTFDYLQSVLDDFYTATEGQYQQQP
Sequence of clathrin adaptor protein AP-2 from rat brain extract (P18484 whole entry, looked up): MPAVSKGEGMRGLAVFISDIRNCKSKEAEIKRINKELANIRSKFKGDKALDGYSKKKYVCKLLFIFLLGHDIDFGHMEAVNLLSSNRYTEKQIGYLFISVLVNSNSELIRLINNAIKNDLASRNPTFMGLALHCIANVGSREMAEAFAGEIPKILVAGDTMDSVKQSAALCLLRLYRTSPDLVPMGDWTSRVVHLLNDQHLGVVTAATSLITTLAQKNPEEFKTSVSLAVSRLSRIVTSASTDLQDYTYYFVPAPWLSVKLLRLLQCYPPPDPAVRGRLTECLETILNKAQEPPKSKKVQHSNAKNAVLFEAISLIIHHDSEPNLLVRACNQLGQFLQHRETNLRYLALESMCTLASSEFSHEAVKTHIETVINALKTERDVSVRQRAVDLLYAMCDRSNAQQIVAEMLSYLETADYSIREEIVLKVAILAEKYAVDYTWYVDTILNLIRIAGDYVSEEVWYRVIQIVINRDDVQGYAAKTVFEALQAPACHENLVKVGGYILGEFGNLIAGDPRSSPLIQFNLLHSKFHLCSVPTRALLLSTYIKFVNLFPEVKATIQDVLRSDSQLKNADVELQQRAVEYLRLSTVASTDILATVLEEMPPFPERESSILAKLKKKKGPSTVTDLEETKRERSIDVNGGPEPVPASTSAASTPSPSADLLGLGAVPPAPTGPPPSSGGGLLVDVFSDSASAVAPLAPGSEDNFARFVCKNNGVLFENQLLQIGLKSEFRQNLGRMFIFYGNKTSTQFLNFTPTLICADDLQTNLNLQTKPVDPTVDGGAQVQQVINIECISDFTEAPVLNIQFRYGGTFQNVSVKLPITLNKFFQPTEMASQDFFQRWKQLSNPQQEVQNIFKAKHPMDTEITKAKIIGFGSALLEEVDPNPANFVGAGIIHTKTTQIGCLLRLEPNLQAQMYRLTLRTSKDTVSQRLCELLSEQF

Substance: clathrin adaptor protein AP-2 from rat brain extract (from UniProt P18484 1-938) (complex)
band intensity (a.u.) [4]: 0.674 a.u.
band intensity (a.u.) [5]: 1.76 a.u.

Substance: myc-tagged Lyn (from UniProt P25911 1-512) (enzyme)
band intensity normalised to VG1 [6]: 0.0368 a.u.
band intensity normalised to VG1 [7]: 1.12 a.u.
band intensity normalised to VG1 [8]: 0.0282 a.u.

Substance: Nck from rat brain extract (natural protein)
band intensity normalised to VG1 [2]: 1.11 a.u.

Substance: Atrophin Interacting Protein AIP4/Itch from rat brain extract (enzyme)
band intensity normalised to VG1 [3]: 0.822 a.u.
band intensity normalised to VG1 [9]: 0.99 a.u.
band intensity normalised to VG1 [10]: 0.0669 a.u.
band intensity normalised to VG1 [11]: 0.119 a.u.

Further lines, results first:

band intensity normalised to VG1 [1]: 0.225 a.u.
band intensity normalised to VG1 [2]: 2.24 a.u.
band intensity normalised to VG1 [3]: 0.062 a.u.
Substance: ponsin/c-Cbl interacting protein CAP from rat brain extract (from UniProt P84109 1-35) (natural protein)

band intensity normalised to VG1 [1]: 0.0821 a.u.
band intensity normalised to VG1 [2]: 0.0459 a.u.
band intensity normalised to VG1 [3]: 0.664 a.u.
Substance: Nedd4 from rat brain extract (from UniProt Q62940 1-887) (enzyme)

band intensity normalised to lysate [12]: 0.111 a.u.
Substance: VGLUT1 from rat brain extract (from UniProt Q62634 1-560) (natural protein)
